Results: patent publication US20220251184A1

Key:
[1] = target: mouse BMP6 (R&D Systems, Cat #6325-BM) (mouse) (UniProt P20722); assay: SPR (MASS-1), mAb captured on anti-human Fc, mBMP6 in solution, 25 C
[2] = target: human BMP6 (R&D Systems, Cat #507-BP) (human) (UniProt P22004); assay: SPR (Biacore 3000), blocking of hBMP6 binding to immobilised hActR2A-hFc (competitor) by 400 nM mAb, 25 C
[3] = target: human BMP6 (R&D Systems, Cat #507-BP) (human) (UniProt P22004); assay: SPR (Biacore 3000), premix of 400 nM mAb and 10 nM hBMP6 over immobilised hActR2B-hFc (competitor), 25 C
[4] = target: human BMP6 (R&D Systems, Cat #507-BP) (human) (UniProt P22004); assay: SPR (Biacore 3000), premix of 400 nM mAb and 10 nM hBMP6 over immobilised hActR2A-hFc (competitor), 25 C
[5] = target: human BMP6 (R&D Systems, Cat #507-BP) (human) (UniProt P22004); assay: SPR (Biacore 3000), blocking of hBMP6 binding to immobilised hHJV-hFc (competitor) by 400 nM mAb, 25 C
[6] = target: human BMP6 (R&D Systems, Cat #507-BP) (human) (UniProt P22004); assay: SPR (Biacore 3000), blocking of hBMP6 binding to immobilised hActR2B-hFc (competitor) by 400 nM mAb, 25 C
[7] = target: human BMP6 (R&D Systems, Cat #507-BP) (human) (UniProt P22004); assay: SPR (MASS-1), mAb captured on anti-human Fc, hBMP6 in solution, 37 C
[8] = target: human BMP6 (R&D Systems, Cat #507-BP) (human) (UniProt P22004); assay: SPR (Biacore 3000), premix of 400 nM mAb and 10 nM hBMP6 over immobilised hHJV-hFc (competitor), 25 C
[9] = target: human BMP6 (R&D Systems, Cat #507-BP) (human) (UniProt P22004); assay: SPR (MASS-1), mAb captured on anti-human Fc, hBMP6 in solution, 25 C
[10] = target: mouse BMP6 (R&D Systems, Cat #6325-BM) (mouse) (UniProt P20722); assay: SPR (MASS-1), mAb captured on anti-human Fc, mBMP6 in solution, 37 C

human BMP6 (R&D Systems, Cat #507-BP) (human), sequence (P22004 375-513 limits assumed): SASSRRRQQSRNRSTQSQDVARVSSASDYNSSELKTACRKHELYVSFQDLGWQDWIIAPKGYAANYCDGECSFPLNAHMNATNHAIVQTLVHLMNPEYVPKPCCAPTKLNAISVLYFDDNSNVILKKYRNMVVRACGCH
mouse BMP6 (R&D Systems, Cat #6325-BM) (mouse), sequence (P20722 372-510 limits assumed): as the sequence (P22004 375-513 limits assumed) above, with A21S, V23G, S25G, A26S, S31G, R39K counted along it

60 nM mBMP6 Bound (RU) [1]: 3 RU
% Blocking [2]: 43%
400 nM mAb + 10 nM hBMP-6 Binding (RU) [3]: 187 RU
400 nM mAb + 10 nM hBMP-6 Binding (RU) [4]: 246 RU
% Blocking [5]: 41%
% Blocking [6]: 25%
60 nM hBMP6 Bound (RU) [7]: 2 RU
400 nM mAb + 10 nM hBMP-6 Binding (RU) [8]: 299 RU
60 nM hBMP6 Bound (RU) [9]: 2 RU
60 nM mBMP6 Bound (RU) [10]: 3 RU
Substance: Isotype Control mAb (antibody)
